Results from paper PMC11480844 (2024).

B1: H2-Kb / Ed31 (parent complex)
chain 1: GQQVQQSPASLVLQEGENAELQCNFSTSLNSMQWFYQRPGGSLVSLFYNPSGTKHSGRLTSTTVIKERRSSLHISSSQTTDSGTYLCALEGNYAQGLTFGLGTRVSVFP
chain 2: ETAVFQTPNYHVTQVGNEVSFNCKQTLGHDTMYWYKQDSKKLLKIMFSYNNKQLIVNETVPRRFSPQSSDKAHLNLRIKSVEPEDSAVYLCASRSAGEQYFGPGTRLTVL
chain 3: not shown
chain 4: IQKTPQIQVYSRHPPENGKPNILNCYVTQFHPPHIEIQMLKNGKKIPKVEMSDMSFSKDWSFYILAHTEFTPTETDTYACRVKHDSMAEPKTVYWDRDM
chain 5: SIINFEKL
B2: H2-Kb / Ed46 (parent complex)
chain 1: AQSVTQPDARVTVSEGASLQLRCKYSYFGTPYLFWYVQYPRQGLQLLLKYYPGDPVVQGVNGFEAEFSKSNSSFHLRKASVHWSDWAVYFCAVGRTGGYKVVFGSGTRLLVSP
chain 2: DSGVVQSPRHIIKEKGGRSVLTCIPISGHSNVVWYQQTLGKELKFLIQHYEKVERDKGFLPSRFSVQQFDDYHSEMNMSALELEDSAMYFCASSPRHSDYTFGSGTRLLVI
chain 3: not shown
chain 4: B1 chain 4
chain 5: SIINFEKL

Variants of: B1
Assay: % of reporter cells activated (NFAT-GFP), raw
Also: test concentration or dose not given here.

Variant	ratio to parent
chain 5 E6D	0.458
chain 5 E6A	0.0173
chain 5 E6F	0.0115
chain 5 E6S	0.00329
chain 5 E6G	0.435
chain 5 E6W	0.00233
chain 5 L8A	0.898
chain 5 L8W	0.766
chain 5 L8Q	0.876
chain 5 L8V	0.812
chain 5 L8R	0.791
chain 5 L8I	0.968
chain 5 L8C	0.602
chain 5 L8E	0.687
chain 5 L8T	0.862
chain 5 L8S	0.762
chain 5 L8Y	0.922
chain 5 L8F	0.891
chain 5 L8H	0.802
chain 5 I2M	1.07
chain 5 I2R	0.851
chain 5 I2C	1.07

Variant	ratio to parent
chain 5 I2W	0.863
chain 5 I2V	1.07
chain 5 K7N	0.185
chain 5 K7P	0.298
chain 5 K7D	0.167
chain 5 K7Y	0.167
chain 5 K7S	0.614
chain 5 K7R	0.698
chain 5 K7T	0.102
chain 5 K7W	0.542
chain 5 K7L	0.141
chain 5 K7F	0.0347
chain 5 I3L	1.02
chain 5 I3V	0.982
chain 5 I3A	0.523
chain 5 I3D	0.375
chain 5 I3M	0.563
chain 5 I3Q	0.272
chain 5 I3P	0.894
chain 5 F5R	0.635
chain 5 F5A	0.866
chain 5 F5L	0.821

Variant	ratio to parent
chain 5 F5M	0.917
chain 5 F5Y	1.11
chain 5 F5Q	0.49
chain 5 F5I	0.496
chain 5 F5H	0.892
chain 5 F5G	0.529
chain 5 N4R	0.0703
chain 5 N4P	0.0223
chain 5 N4E	0.0188
chain 5 N4G	0.083
chain 5 N4S	0.00781
chain 5 N4I	0.484
chain 5 N4V	0.132
chain 5 N4L	0.198
chain 5 N4F	0.127
chain 5 N4A	0.0503
chain 5 S1K	0.757
chain 5 S1N	0.163
chain 5 S1Q	0.757
chain 5 S1C	0.44
chain 5 S1L	0.46

Other lines, results leading:

ratio to parent	Variant
0.0136	chain 5 E6N
0.00208	chain 5 E6T
0.25	chain 5 E6M
0.00379	chain 5 E6V
0.0864	chain 5 E6Y
0.00349	chain 5 E6R
0.174	chain 5 E6H
0.0101	chain 5 E6P
0.69	chain 5 L8N
0.779	chain 5 L8P
1.09	chain 5 I2T
0.795	chain 5 I2F
1.11	chain 5 I2E
0.897	chain 5 I2Q
0.247	chain 5 K7V
0.0194	chain 5 K7E
0.104	chain 5 K7M
0.0501	chain 5 I3R

ratio to parent	Variant
0.309	chain 5 I3G
0.355	chain 5 I3W
0.499	chain 5 I3E
0.548	chain 5 I3T
0.183	chain 5 I3H
0.859	chain 5 F5V
0.536	chain 5 F5D
0.829	chain 5 F5W
0.031	chain 5 N4C
0.156	chain 5 N4T
0.0359	chain 5 N4K
0.583	chain 5 N4Q
0.658	chain 5 S1P
0.898	chain 5 S1M
0.498	chain 5 S1W
0.803	chain 5 S1A
0.459	chain 5 S1F
0.532	chain 5 S1R

Variants of: B2
Assay: % of reporter cells activated (NFAT-GFP), raw

Variant	ratio to parent
chain 5 N4T	0.00841
chain 5 N4M	0.00538
chain 5 N4Y	0.0186
chain 5 N4P	0.00841
chain 5 N4R	0.317
chain 5 F5S	1.32
chain 5 F5M	1.02
chain 5 F5L	1.17
chain 5 F5R	1.18
chain 5 K7I	0.2
chain 5 K7Q	0.0775
chain 5 K7W	0.628
chain 5 K7E	0.00395
chain 5 I2F	1.13
chain 5 I2N	0.898
chain 5 I2Y	0.656
chain 5 I2T	1.39

Variant	ratio to parent
chain 5 I2R	1.11
chain 5 S1A	0.746
chain 5 S1N	0.0395
chain 5 S1C	0.0634
chain 5 S1T	0.278
chain 5 S1H	0.973
chain 5 I3M	0.446
chain 5 I3R	0.245
chain 5 I3K	0.924
chain 5 I3Y	1.08
chain 5 L8Y	1.07
chain 5 L8C	0.613
chain 5 L8I	1.07
chain 5 L8K	1.09
chain 5 E6A	0.534
chain 5 E6L	0.16

More lines, now with the values ahead:

ratio to parent	Variant
0.0119	chain 5 N4W
0.0593	chain 5 N4L
0.027	chain 5 N4K
1.19	chain 5 F5C
0.0252	chain 5 K7C
0.138	chain 5 K7N
0.178	chain 5 K7L
1.4	chain 5 I2A
0.0427	chain 5 S1P
0.0256	chain 5 S1V
0.47	chain 5 I3E
0.202	chain 5 I3G
0.998	chain 5 I3H
0.17	chain 5 I3D
0.861	chain 5 L8A
0.038	chain 5 E6W
